Laboratory results: patent US20230357429A1 (JANUX THERAPEUTICS, published 2023)

T1: Human TROP2 ECD (31-274 AA) (human, UniProt P09758 31-274, biotinylated)
T1 construct: also called biotinylated TROP2; TROP2-biotin
T1 sequence: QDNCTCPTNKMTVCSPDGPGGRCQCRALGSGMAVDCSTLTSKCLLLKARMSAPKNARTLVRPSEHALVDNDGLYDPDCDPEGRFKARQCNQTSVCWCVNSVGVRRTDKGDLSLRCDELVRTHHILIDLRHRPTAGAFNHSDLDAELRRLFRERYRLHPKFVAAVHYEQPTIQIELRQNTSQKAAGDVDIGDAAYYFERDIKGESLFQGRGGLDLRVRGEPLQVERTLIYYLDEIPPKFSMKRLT

T2: Human TROP2 Full length (human, UniProt P09758 31-323)
T2 sequence: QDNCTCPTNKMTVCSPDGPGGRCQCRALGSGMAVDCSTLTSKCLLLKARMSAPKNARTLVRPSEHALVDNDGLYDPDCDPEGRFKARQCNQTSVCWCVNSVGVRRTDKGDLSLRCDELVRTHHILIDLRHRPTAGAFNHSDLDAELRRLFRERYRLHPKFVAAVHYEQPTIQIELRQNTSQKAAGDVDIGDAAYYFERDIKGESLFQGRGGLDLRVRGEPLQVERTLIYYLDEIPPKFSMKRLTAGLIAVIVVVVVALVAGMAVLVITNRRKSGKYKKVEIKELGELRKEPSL

T3: Cyno TROP2 Full length (cynomolgus monkey, UniProt P09758 31-323 (human entry))
T3 chain: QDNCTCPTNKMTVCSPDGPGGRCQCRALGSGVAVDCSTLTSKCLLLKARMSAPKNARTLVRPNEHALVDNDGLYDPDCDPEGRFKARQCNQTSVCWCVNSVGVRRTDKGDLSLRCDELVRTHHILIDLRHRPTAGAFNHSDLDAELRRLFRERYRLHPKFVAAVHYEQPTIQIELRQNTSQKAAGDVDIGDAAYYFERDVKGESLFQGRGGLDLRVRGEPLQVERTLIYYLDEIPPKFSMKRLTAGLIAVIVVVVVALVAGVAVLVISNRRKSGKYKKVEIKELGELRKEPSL

B1: PC-41 (bispecific antibody)
light: GGVDFCALYHWPICYQGGGGSGGLSGRSDAGSPLGLAGSGGSDIQLTQSPSSLSASVGDRVSITCKASQDVSIAVAWYQQKPGKAPKLLIYSASYRYTGVPDRFSGSGSGTDFTLTISSLQPEDFAVYYCQQHYITPLTFGAGTKVEIKRTVAAPSVFIFPPSDEQLKSGTASVVCLLNNFYPREAKVQWKVDNALQSGNSQESVTEQDSKDSTYSLSSTLTLSKADYEKHKVYACEVTHQGLSSPVTKSFNRGEC
heavy: EVQLVESGGGLVQPGGSLRLSCAASGSTFYTAVMGWVRQAPGKGLEWVAAIRWTALTTSYADSVKGRFTISRDGAKTTLYLQMNSLRPEDTAVYYCAARGTLGLFTTADSYDYWGQGTLVTVSSGGGGSGGGSGGVYCGPEFDESVGCAGGGGSGGGLSGRSDAGSPLGLAGSGGGSEVQLVESGGGLVQPGGSLKLSCAASGFTFNKYAMNWVRQASGKGLEWVGRIRSKYNNYATYYADSVKDRFTISRDDSKNTAYLQMNSLKTEDTAVYYCVRHGNFGNSYISYWAYWGQGTLVTVSSGGGGSGGGGSGGGGSQTVVTQEPSFSVSPGGTVTLTCRSSTGAVTSGNYANWVQQTPGQAPRGLIGGTKFLAPGVPDRFSGSILGNKAALTITGAQADDESDYYCVLWYSNRWVFGGGTKLTVLGGGGSQVQLQQSGSELKKPGASVKVSCKASGYTFTNYGMNWVKQAPGQGLKWMGWINTYTGEPTYTDDFKGRFAFSLDTSVSTAYLQISSLKADDTAVYFCARGGFGSSYWYADVWGQGSLVTVSSASTKGPSVFPLAPSSKSTSGGTAALGCLVKDYFPEPVTVSWNSGALTSGVHTFPAVLQSSGLYSLSSVVTVPSSSLGTQTYICNVNHKPSNTKVDKKVEPKSC
notes: Masked polypeptide complex: anti-TROP2 F108A, anti-CD3 with P41S, A49G, N87S ; E227D
B2: PC-43 (bispecific antibody)
light: GGVDFCALYHWPICYQGGGGSGGLSGRSDAGSPLGLAGSGGSDIQLTQSPSSLSASVGDRVSITCKASQDVSIAVAWYQQKPGKAPKLLIYSASYRYTGVPDRFSGSGSGTDFTLTISSLQPEDFAVYYCQQHYITPLTFGAGTKVEIKRTVAAPSVFIFPPSDEQLKSGTASVVCLLNNFYPREAKVQWKVDNALQSGNSQESVTEQDSKDSTYSLSSTLTLSKADYEKHKVYACEVTHQGLSSPVTKSFNRGEC
heavy: EVQLVESGGGLVQPGGSLRLSCAASGSTFYTAVMGWVRQAPGKGLEWVAAIRWTALTTSYADSVKGRFTISRDGAKTTLYLQMNSLRPEDTAVYYCAARGTLGLFTTADSYDYWGQGTLVTVSSGGGGSGGGSGGGSACLGPEWEVCPYGGGGSGGGLSGRSDAGSPLGLAGSGGGSEVQLVESGGGLVQPGGSLKLSCAASGFTFNKYAMNWVRQASGKGLEWVGRIRSKYNNYATYYADSVKDRFTISRDDSKNTAYLQMNSLKTEDTAVYYCVRHGNFGNSYISYWAYWGQGTLVTVSSGGGGSGGGGSGGGGSQTVVTQEPSFSVSPGGTVTLTCRSSTGAVTSGNYANWVQQTPGQAPRGLIGGTKFLAPGVPDRFSGSILGNKAALTITGAQADDESDYYCVLWYSNRWVFGGGTKLTVLGGGGSQVQLQQSGSELKKPGASVKVSCKASGYTFTNYGMNWVKQAPGQGLKWMGWINTYTGEPTYTDDFKGRFAFSLDTSVSTAYLQISSLKADDTAVYFCARGGFGSSYWYADVWGQGSLVTVSSASTKGPSVFPLAPSSKSTSGGTAALGCLVKDYFPEPVTVSWNSGALTSGVHTFPAVLQSSGLYSLSSVVTVPSSSLGTQTYICNVNHKPSNTKVDKKVEPKSC
notes: as for B1

What was measured:
[1] = molecular target: T1, Human TROP2 ECD (31-274 AA); assay: ELISA; biotinylated TROP2 on neutravidin plates, PC titrated, HRP secondary
[2] = molecular target: T2, Human TROP2 Full length; assay: cell-based or functional assay
[3] = molecular target: T3, Cyno TROP2 Full length; assay: cell-based or functional assay
[4] = molecular target: T4, CD3 (human, UniProt P07766 23-126, limits assumed, biotinylated); assay: ELISA; biotinylated CD3 on neutravidin plates, PC titrated, HRP secondary
T4 construct: also called biotinylated CD3; CD3-biotin

[5] = molecular target: T5, TBD-1 wt (anti-TROP2 Fab, hRS7); assay: competition ELISA, Fab on captured TROP2
T5 construct: non-mutated Fab

[6] = molecular target: T6, TBD-21 (HC F108A); assay: competition ELISA, Fab on captured TROP2
T6 construct: anti-TROP2 Fab, CDR3 HC alanine mutant

[7] = molecular target: T7, TBD-22 (HC D109A); assay: competition ELISA, Fab on captured TROP2
T7 construct: anti-TROP2 Fab, CDR3 HC alanine mutant

[8] = molecular target: T8, TBD-6 (LC I93A); assay: competition ELISA, Fab on captured TROP2
T8 construct: anti-TROP2 Fab, CDR3 LC alanine mutant

[9] = molecular target: T9, TBD-17 (HC S104A); assay: competition ELISA, Fab on captured TROP2
T9 construct: anti-TROP2 Fab, CDR3 HC alanine mutant

[10] = molecular target: T10, TBD-11 (HC R98A); assay: competition ELISA, Fab on captured TROP2
T10 construct: anti-TROP2 Fab, CDR3 HC alanine mutant

| Binder | EC50 [1] [µM] | H292 Cytotoxicity EC50 (pM) [2] [pM] | CyTROP2 HEK293 EC50 (pM) [3] [pM] | EC50 [4] [µM] | IC50 [5] [µM] | IC50 [6] [µM] | IC50 [7] [µM] | IC50 [8] [µM] | IC50 [9] [µM] | IC50 [10] [µM] |
| --- | --- | --- | --- | --- | --- | --- | --- | --- | --- | --- |
| B1 | 1.38 | 47000 | 5130 | 0.23 | – | – | – | – | – | – |
| B2 | 0.587 | 12700 | 1220 | 0.0607 | – | – | – | – | – | – |
| IDFCYRYGWPVCQT (mask peptide for the TROP2 Fab) [Peptide-57] | – | – | – | – | 16.7 | 88.1 | 1.91 | 12.7 | 17.3 | – |
| VDFCNLYHWPICAI (mask peptide for the TROP2 Fab) [Peptide-60] | – | – | – | – | 0.47 | 5.45 | 0.16 | 0.67 | 2.09 | 2.56 |
| VDFCYRYSWPVCWA (mask peptide for the TROP2 Fab) [Peptide-54] | – | – | – | – | 27.1 | 161 | 3.62 | 23.4 | 29.9 | – |
| IDFCRVYDWPVCSL (mask peptide for the TROP2 Fab) [Peptide-53] | – | – | – | – | 8.93 | 22.7 | 0.59 | 4.51 | 7.56 | 16.1 |
| VDFCGLYHWPICYQ (mask peptide for the TROP2 Fab) [Peptide-8] | – | – | – | – | – | 2.12 | 0.1 | 0.76 | 1.25 | 0.94 |
| VDFCALYHWPICYQ (mask peptide for the TROP2 Fab) [Peptide-43] | – | – | – | – | 0.27 | 1.04 | 0.05 | 0.48 | 0.51 | 0.87 |
| VDFCALYNWPVCAI (mask peptide for the TROP2 Fab) [Peptide-59] | – | – | – | – | 3.49 | 9.64 | 0.1 | 1.94 | 3.49 | 7.55 |
| IDFCLLYKWPVCEL (mask peptide for the TROP2 Fab) [Peptide-49] | – | – | – | – | 3.73 | 8.67 | 0.07 | 2.25 | 2.53 | 6.37 |
| VEFCAIYSWPICKI (mask peptide for the TROP2 Fab) [Peptide-46] | – | – | – | – | 5.14 | 25.9 | 0.7 | 5.18 | 11.5 | 22.3 |
| VDFCAIYSWPICKI (mask peptide for the TROP2 Fab) [Peptide-50] | – | – | – | – | 0.56 | 3.7 | 0.02 | 0.92 | 1.54 | 1.97 |
| VDFCYMYKWPVCYP (mask peptide for the TROP2 Fab) [Peptide-48] | – | – | – | – | 10 | 75.2 | 0.31 | 6.26 | 8.86 | 31.3 |
| VDFCGLYHWPICYQV (mask peptide for the TROP2 Fab) [Peptide-51] | – | – | – | – | 0.18 | 1.27 | 0.01 | 0.42 | 0.55 | 0.62 |
| VDFCYQYGWPICSRV (mask peptide for the TROP2 Fab) [Peptide-56] | – | – | – | – | 10.1 | 106 | 3.03 | 5.62 | 24.1 | 21 |
| VDFCYKYNWPICSR (mask peptide for the TROP2 Fab) [Peptide-55] | – | – | – | – | 4.39 | 16.8 | 0.33 | 3.12 | 7.21 | 14 |
